B1: Homeobox protein cut-like 1, residues 548 to 629; numbered along this chain, P39880 (parent)
chain: GEEMDTAEIARQVKEQLIKHNIGQRIFGHYVLGLSQGSVSEILARPKPWNKLTVRGKEPFHKMKQFLSDEQNILALRSIQGR

± gives the uncertainty stated by the source.

The variants in this series derive from B1. The experiment in a line: abundance fitness (aPCA) (normalised: wild type 0, dead -1); higher = more abundant; growth selection in yeast, the domain comes from the species named. Particulars: Homo sapiens.
As to GEEMDTAEIARQVKEQLIKHNIGQRIFGHYVLGLSQGSVSEILARPKPWNKLTVRGKEPFHKMKQFLSDEENILALRSIQGR, the abundance fitness stood at 0.06 ± 0.033.
Turning to GEEMDTAEIARQVKEQLIKHNIGQRIFGHYVLGLSQGSVSEILARPKPWNKLTVRGKEPFHKMKQFLSDEFNILALRSIQGR, the abundance fitness was -0.204 ± 0.057.
Then GEEMDTAEIARQVKEQLIKHNIGQRIFGHYVLGLSQGSVSEILARPKPWNKLTVRGKEPFHKMKQFLSDECNILALRSIQGR, with -0.11 ± 0.044.
Then GEEMDTAEIARQVKEQLIKHNIGQRIFGHYVLGLSQGSVSEILARPKPWNKLTVRGKEPFHKMKQFLSDEDNILALRSIQGR, with -0.035 ± 0.049; and GEEMDTAEIARQVKEQLIKHNIGQRIFGHYVLGLSQGSVSEILARPKPWNKLTVRGKEPFHKMKQFLSLEQNILALRSIQGR, with -0.318 ± 0.036.
Then GEEMDTAEIARQVKEQLIKHNIGQRIFGHYVLGLSQGSVSEILARPKPWNKLTVRGKEPFHKMKQFLSNEQNILALRSIQGR, with -0.015 ± 0.052; and GEEMDTAEIARQVKEQLIKHNIGQRIFGHYVLGLSQGSVSEILARPKPWNKLTVRGKEPFHKMKQFLSPEQNILALRSIQGR, with -0.75 ± 0.085; and GEEMDTAEIARQVKEQLIKHNIGQRIFGHYVLGLSQGSVSEILARPKPWNKLTVRGKEPFHKMKQFLSVEQNILALRSIQGR, with -0.308 ± 0.034.
As for GEEMDTAEIARQVKEQLIKHNIGQRIFGHYVLGLSQGSVSEILARPKPWNKLTVRGKEPFHKMKQFLSKEQNILALRSIQGR, the abundance fitness is -0.108 ± 0.042.
Then GEEMDTAEIARQVKEQLIKHNIGQRIFGHYVLGLSQGSVSEILARPKPWNKLTVRGKEPFHKMKQFLSHEQNILALRSIQGR, with -0.182 ± 0.085; and GEEMDTAEIARQVKEQLIKHNIGQRIFGHYVLGLSQGSVSEILARPKPWNKLTVRGKEPFHKMKQFLSREQNILALRSIQGR, with -0.207 ± 0.027.
Then GEEMDTAEIARQVKEQLIKHNIGQRIFGHYVLGLSQGSVSEILARPKPWNKLTVRGKEPFHKMKQFLSWEQNILALRSIQGR, with -0.387 ± 0.039; and GEEMDTAEIARQVKEQLIKHNIGQRIFGHYVLGLSQGSVSEILARPKPWNKLTVRGKEPFHKMKQFLSYEQNILALRSIQGR, with -0.351 ± 0.071; and GEEMDTAEIARQVKEQLIKHNIGQRIFGHYVLGLSQGSVSEILARPKPWNKLTVRGKEPFHKMKQFLSTEQNILALRSIQGR, with -0.181 ± 0.044.
To GEEMDTAEIARQVKEQLIKHNIGQRIFGHYVLGLSQGSVSEILARPKPWNKLTVRGKEPFHKMKQFLSMEQNILALRSIQGR belongs -0.231 ± 0.044.
GEEMDTAEIARQVKEQLIKHNIGQRIFGHYVLGLSQGSVSEILARPKPWNKLTVRGKEPFHKMKQFLSIEQNILALRSIQGR: the abundance fitness is -0.425 ± 0.07.
Then GEEMDTAEIARQVKEQLIKHNIGQRIFGHYVLGLSQGSVSEILARPKPWNKLTVRGKEPFHKMKQFLSDHQNILALRSIQGR, with 0.001 ± 0.057; and GEEMDTAEIARQVKEQLIKHNIGQRIFGHYVLGLSQGSVSEILARPKPWNKLTVRGKEPFHKMKQFLSDMQNILALRSIQGR, with -0.139 ± 0.038; and GEEMDTAEIARQVKEQLIKHNIGQRIFGHYVLGLSQGSVSEILARPKPWNKLTVRGKEPFHKMKQFLSDQQNILALRSIQGR, with -0.047 ± 0.044.
Then GEEMDTAEIARQVKEQLIKHNIGQRIFGHYVLGLSQGSVSEILARPKPWNKLTVRGKEPFHKMKQFLSDIQNILALRSIQGR, with -0.187 ± 0.057; and GEEMDTAEIARQVKEQLIKHNIGQRIFGHYVLGLSQGSVSEILARPKPWNKLTVRGKEPFHKMKQFLSDWQNILALRSIQGR, with -0.217 ± 0.036; and GEEMDTAEIARQVKEQLIKHNIGQRIFGHYVLGLSQGSVSEILARPKPWNKLTVRGKEPFHKMKQFLSDSQNILALRSIQGR, with -0.083 ± 0.032.
Then GEEMDTAEIARQVKEQLIKHNIGQRIFGHYVLGLSQGSVSEILARPKPWNKLTVRGKEPFHKMKQFLSDTQNILALRSIQGR, with -0.121 ± 0.047; and GEEMDTAEIARQVKEQLIKHNIGQRIFGHYVLGLSQGSVSEILARPKPWNKLTVRGKEPFHKMKQFLSDDQNILALRSIQGR, with -0.043 ± 0.042; and GEEMDTAEIARQVKEQLIKHNIGQRIFGHYVLGLSQGSVSEILARPKPWNKLTVRGKEPFHKMKQFLSDYQNILALRSIQGR, with -0.152 ± 0.058.
GEEMDTAEIARQVKEQLIKHNIGQRIFGHYVLGLSQGSVSEILARPKPWNKLTVRGKEPFHKMKQFLSDLQNILALRSIQGR: the abundance fitness was -0.307 ± 0.035.
To GEEMDTAEIARQVKEQLIKHNIGQRIFGHYVLGLSQGSVSEILARPKPWNKLTVRGKEPFHKMKQFLSDRQNILALRSIQGR belongs -0.055 ± 0.026.
To GEEMDTAEIARQVKEQLIKHNIGQRIFGHYVLGLSQGSVSEILARPKPWNKLTVRGKEPFHKMKQFLSDFQNILALRSIQGR belongs -0.213 ± 0.063; to GEEMDTAEIARQVKEQLIKHNIGQRIFGHYVLGLSQGSVSEILARPKPWNKLTVRGKEPFHKMKQFLSDAQNILALRSIQGR, -0.026 ± 0.031.
Regarding GEEMDTAEIARQVKEQLIKHNIGQRIFGHYVLGLSQGSVSEILARPKPWNKLTVRGKEPFHKMKQFLSDGQNILALRSIQGR, the abundance fitness is -0.126 ± 0.025.
Then GEEMDTAEIARQVKEQLIKHNIGQRIFGHYVLGLSQGSVSEILARPKPWNKLTVRGKEPFHKMKQFLSDNQNILALRSIQGR, with -0.084 ± 0.065; and GEEMDTAEIARQVKEQLIKHNIGQRIFGHYVLGLSQGSVSEILARPKPWNKLTVRGKEPFHKMKQFLSDVQNILALRSIQGR, with -0.154 ± 0.03; and GEEMDTAEIARQVKEQLIKHNIGQRIFGHYVLGLSQGSVSEILARPKPWNKLTVRGKEPFHKMKQFLSDCQNILALRSIQGR, with -0.118 ± 0.047.
For the variant GEEMDTAEIARQVKEQLIKHNIGQRIFGHYVLGLSQGSVSEILARPKPWNKLTVRGKEPFHKMKQFLSDPQNILALRSIQGR, the abundance fitness was 0.026 ± 0.044.
